# Data published in patent US8173771B2, “Humanin receptor or humanin-like polypeptide receptor” (Keio Univeristy, priority 2005, dated 2012).
# T1: C-terminally myc-tagged human WSX-1 (mycHis-WSX-1) (human, UniProt Q6UWB1 33-636)
# T1 construct: whole, on cells; in the pull-down and co-immunoprecipitation it stood in cell lysates; also called myc-WSX-1; IL-27 receptor; not shown: C-terminal myc-His tag of the pEF-mycHis vector
# T1 sequence (looked up): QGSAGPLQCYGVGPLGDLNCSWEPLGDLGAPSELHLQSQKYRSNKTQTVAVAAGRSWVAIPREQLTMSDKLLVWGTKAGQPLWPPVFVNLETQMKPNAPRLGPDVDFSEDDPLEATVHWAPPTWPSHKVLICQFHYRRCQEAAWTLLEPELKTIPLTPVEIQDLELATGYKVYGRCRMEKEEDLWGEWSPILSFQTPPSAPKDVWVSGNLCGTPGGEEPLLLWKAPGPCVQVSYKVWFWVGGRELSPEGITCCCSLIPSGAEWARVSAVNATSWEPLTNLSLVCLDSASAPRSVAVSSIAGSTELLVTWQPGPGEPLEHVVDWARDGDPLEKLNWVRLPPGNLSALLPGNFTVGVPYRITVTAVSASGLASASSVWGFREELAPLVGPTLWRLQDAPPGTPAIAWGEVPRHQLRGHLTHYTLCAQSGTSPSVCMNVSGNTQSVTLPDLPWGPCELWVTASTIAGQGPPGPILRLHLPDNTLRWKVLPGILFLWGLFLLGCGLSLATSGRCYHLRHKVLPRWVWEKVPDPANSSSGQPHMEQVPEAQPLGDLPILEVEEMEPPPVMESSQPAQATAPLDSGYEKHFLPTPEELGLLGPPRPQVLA
# Columns and labels:
# [1] = system: primary cortical neurons (PCNs); test: Aβ neurotoxicity in primary cortical neurons, WST-8 / Calcein / LDH; type: cell-based, mouse; conditions: for effect on the HN effect: 10 nM HNG
# Experimental: B) PCNs were incubated with 25 μM Aβ (upper) in the presence of 10 μg of recombinant soluble human gp130 (lower “+”) or BSA (lower “−”). Cell viability was determined by WST-8 assay (upper) or Calcein fluorescence assay (lower) at 72 hr after the onset of treatment with Aβ.
# C) PCNs were incubated with 25 μM Aβ (1-43) in the presence of 1 μg of neutralizing anti-mouse gp130 antibody (RX435) or control IgG. Cell viability and cell mortality were determined by Calcein fluorescence (left panel) and LDH assays (right panel), respectively, at 72 hr after the onset of treatment with Aβ (1-43).
# […] At 72 hr after incubation, the cells were harvested for WST-8 assays or/and Calcein fluorescence assays to show cell viability.
# B) The soluble IL-6 receptor-α (sIL-6R) or the soluble CNTF-R (100 ng/ml) were added to the cells as in the above A), followed by the stimulation with its ligand, IL-6 or CNTF (100 ng/ml), respectively to show the effects on the neuronal cell death due to Aβ. The right and left graphs show the cell viabilities determined by WST-8 assays and Calcein fluorescence assays, respectively.
# C) The neutralizing antibodies (1 μg) for the mouse gp130, mouse LIFR, mouse IL-11R and rat CNTF-R were added as in the above A), and cell viability was determined by Calcein fluorescence assays after 72 hours.
# WST-8 assay was performed at 72 hrs after the treatment.
# The primary culture of mouse cortical neurons was prepared as described previously (Sudo et al., 2000). Briefly, primary cortical neurons, obtained from embryonic day 14 (E14) ICR mice were seeded in poly-L-lysine-coated 96 well plates (Sumitomo Bakelite) at 2.5 or 5.0×10^4 cells/well in Neuron Medium (Sumitomo Bakelite) (Hashimoto et al., 2003; Niikura et al., 2004). Purity of neurons by this method was >98%. After 3 days, the culture medium was replaced with DMEM with N2 supplement. On the fourth day in vitro, 25 μM of Aβ (1-42) was added in association with indicated concentrations of HN or cytokines in the presence or the absence of soluble cytokine receptors or neutralizing antibodies. At 72 hrs after the onset of treatment, cell viability was assessed by WST-8 assay and/or Calcein fluorescence assay and cell mortality was assessed by the Trypan blue exclusion assay and LDH assay (Hashimoto et al, 2000, 2001 a b, 2003).
# [2] = system: F11 cells; test: Neuronal cell death of F11 cells induced by overexpression of FAD genes (V642I-APP, M146L-PS1), WST-8 / Trypan blue; type: cell-based
# Experimental: D) F11 cells were transfected with 0.5 μg of the pcDNA3 vector or pcDNA3-V642I-APP in association with 0.5 μg of the pEFBos vector or pEFBos-wild-type human gp130 (gp130wt). At 24 hr after transfection, the cells were added with 1 μg of neutralizing anti-mouse gp130 antibody. Cell mortality (left panel) and cell viability (right panel) were determined by Trypan blue exclusion assay and WST-8 assay at 72 hr after transfection. Below are shown the results of the expression of V642I-APP, and human gp130wt, which were confirmed by immunoblot analysis (photos).
# B) F11 cells were transfected with 0.5 μg of the pcDNA3 vector or pcDNA3-V642I-APP in association with pRNA-U6.1/Shuttle vector (NO), pRNA-U6.1/Shuttle-siWSX-1 (W), pRNA-U6.1/Shuttle-siCNTF-R (C), or pRNA-U6.1/Shuttle-siFPR-2 (F) (Hashimoto et al. 2005). At 24 hrs after transfection, the cells were added with or without 10 nM of HNG. At 72 hrs after transfection, the cells were harvested for WST-8 assays. […]
# F11 cells were transfected with pcDNA3 vector or pcDNA3-V642I-APP. […] The expression of V642I-APP determined by immunoblot analysis was shown below in a photo. […]
# The transfection procedures were as described (Hashimoto et al, 2000, 2001a, 2003). […] Transfection efficiency in these protocols has been determined to be invariably around 70%. […]
# [3] = system: STAT3; test: Immunoblot of phosphotyrosine 705 of STAT3 in F11 cells; type: cell-based; conditions: F11 cells, 15 min
# Experimental: E) F11 cells were transfected with an indicated amount of pRNA-U6.1/Shuttle vector (empty), pRNA-U6.1/Shuttle-IL-6R siRNA, or pRNA-U6.1/Shuttle-LIFR siRNA. At 48 hrs after transfection, the cells were treated with 100 ng/ml IL-6, 100 ng/ml CNTF or 1 μM HNG at 37° for 15 min, and harvested. The results of immunoblot analysis using anti-phophoSTAT3 ([…]) antibody and anti-STAT3 antibody were shown in photos. A) F11 cells were added with an indicated amount of HN, HNG or HNA and harvested 15 min later for immunoblot analysis with antibodies recognizing phosphotyrosine 705 of STAT3 or STAT3. The results are shown in photos. B) F11 cells were transfected with 0.5 μg of pRNA-U1.6/Shuttle vector, pRNA-U6.1/Shuttle-WSX-1 siRNA, pRNA-U6.1/Shuttle-CNTF-R siRNA, both pRNA-U6.1/Shuttle-WSX-1 siRNA and pRNA-U6.1/Shuttle-CNTF-R siRNA (0.5 μg each), or pRNA-U6.1/Shuttle-FPR2 siRNA. The total amount of vectors was adjusted to be 1.0 μg by including a backbone vector. […] The results are shown in photos. Cell lysates (10-20 μg/lane) or pulled-down precipitates were subject to SDS-PAGE, and the proteins separated on the gel were transferred onto polyvinylidene difluoride membranes as described (Hashimoto et al, 2000). Visualization of the immunoreactive protein bands was performed by ECL (Amersham Pharmacia Biotech, Uppsala, Sweden).
# [4] = biological target: T1, C-terminally myc-tagged human WSX-1 …; test: cold competitor (10 µM) in binding assay (1), F11 cells expressing human WSX-1 and gp130
# Experimental: B) F11 cells were transfected with 0.5 µg of pEF-myc His human CREME9 or pEF-mycHis human WSX-1 in association with 0.5 µg of pCAG-human gp130. […] Fluorescence signals were detected with a laser-scanning, confocal microscope LSM (Carl Zeiss, Germany) (right panels).
# (§1) F11 cells (7×10^4/well in 6-well plates) were replated into 96-well plates (7×10^3 cells/well) at 24 hrs after transfection with indicated amounts of the plasmids encoding mycHis-WSX or V5-CNTF-R, and with PCAG-human gp130 if required. […] After 6 hrs incubation, they were fixed with 4% paraformaldehyde in PBS for 30 min. After washing with PBS, cells were stained with FITC-conjugated avidin (Molecularprobe, Eugene, Oreg., USA). Immunofluorescence intensity was measured (excitation=485 nm, emission=535 nm) with a spectrofluorometer (Wallac1420 ARVOsx Multi Label Counter). Immunohistochemical analysis was done with a laser-scanning, confocal microscope LSM (Carl Zeiss, Germany).
# [5] = biological target: T2, Humanin receptor (HNR) overexpressed in F11 cells: human CNTF-R/WSX-1/gp130 (human, UniProt P26992 23-342; Q6UWB1 33-636; P40189 23-918); test: cold competitor in binding assay (2), F11 cells transfected with human CNTF-R/WSX-1/gp130
# T2 construct: whole, on cells; The three human subunits co-transfected into F11 cells, which also carry the endogenous receptor; also called both the CNTF receptor and WSX-1; not shown: C-terminal V5 tag; C-terminal myc-His tag
# Experimental: A) F11 cells were seeded on 96-well plates coated with poly-L-lysine (7 ×10^3 cells/well). […] On the other hand, F11 cells were transfected with 0.5 μg of pcDNA3.1/GS-human CNTF-R, pEF1/MycHis-human WSX-1, and 1.0 μg of pCAG-human gp130. At 24 hrs after the transfection, the cells were re-seeded on 96-well plates coated with poly-L-lysine (7 ×10^3 cells/well).
# as §1
# T2 sequence (P26992 23-342, chain 1 of 2): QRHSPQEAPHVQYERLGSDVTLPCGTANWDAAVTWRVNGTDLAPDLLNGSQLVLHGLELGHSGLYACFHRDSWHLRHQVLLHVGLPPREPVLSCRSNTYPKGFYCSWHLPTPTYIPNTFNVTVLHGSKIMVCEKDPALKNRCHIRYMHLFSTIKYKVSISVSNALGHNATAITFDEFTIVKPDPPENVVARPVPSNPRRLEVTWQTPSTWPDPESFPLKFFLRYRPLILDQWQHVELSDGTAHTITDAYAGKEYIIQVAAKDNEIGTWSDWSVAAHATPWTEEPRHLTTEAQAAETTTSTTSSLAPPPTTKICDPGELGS
# T2 sequence (P40189 23-918, chain 3 of 2): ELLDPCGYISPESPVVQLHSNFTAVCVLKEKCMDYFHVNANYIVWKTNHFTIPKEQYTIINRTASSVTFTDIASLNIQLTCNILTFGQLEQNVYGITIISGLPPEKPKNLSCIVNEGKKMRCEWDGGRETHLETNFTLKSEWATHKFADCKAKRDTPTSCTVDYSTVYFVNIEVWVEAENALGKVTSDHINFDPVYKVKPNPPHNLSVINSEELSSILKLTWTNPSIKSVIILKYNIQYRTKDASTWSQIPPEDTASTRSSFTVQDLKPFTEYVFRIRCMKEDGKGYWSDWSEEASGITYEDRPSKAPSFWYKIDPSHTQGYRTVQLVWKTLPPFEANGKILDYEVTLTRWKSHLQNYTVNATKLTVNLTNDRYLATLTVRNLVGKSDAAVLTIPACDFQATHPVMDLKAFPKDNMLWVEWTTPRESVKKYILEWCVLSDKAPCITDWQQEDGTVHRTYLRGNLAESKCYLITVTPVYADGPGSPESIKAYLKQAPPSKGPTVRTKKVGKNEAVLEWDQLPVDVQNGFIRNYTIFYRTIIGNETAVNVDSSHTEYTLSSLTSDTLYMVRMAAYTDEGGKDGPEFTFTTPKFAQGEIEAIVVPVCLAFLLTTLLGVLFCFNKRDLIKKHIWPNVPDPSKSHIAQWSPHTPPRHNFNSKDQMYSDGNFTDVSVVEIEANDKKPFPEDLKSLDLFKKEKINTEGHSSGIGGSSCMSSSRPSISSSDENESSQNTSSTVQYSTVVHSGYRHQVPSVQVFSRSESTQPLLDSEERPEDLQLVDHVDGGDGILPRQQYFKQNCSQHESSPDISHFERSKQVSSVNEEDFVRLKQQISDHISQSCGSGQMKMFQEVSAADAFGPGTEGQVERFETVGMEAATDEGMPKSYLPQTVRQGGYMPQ
binding result [4],binding result [5],Molecule,"effect on the HN effect ([1]; PCN, 10 μM Aβ (1-43))","HN-like effect ([1]; PCN, higher concentration range, 10 μM Aβ (1-43))",concentration range showing HN-like effect (activity) ([2]; WST-8),concentration range suppressing the HN effect ([2]; given with HNG),phosphorylation of tyrosine 705 of STAT3 [3],mimicry of HN in neuroprotection against neuronal cell death by Aβ ([1]; cytokine 100 ng/ml with its soluble receptor (sIL-6R or soluble CNTF receptor) 100 ng/ml),"inhibition of neurotoxicity by Aβ ([1]; cytokine alone, physiological levels (up to 100 ng/ml), 25 μM Aβ)"
,,"IL-27: IL-27 (IL-27p28/EBV-induced gene 3), IL-6/IL-12 family cytokine binding to WSX-1/gp130 (protein) chain 1: FPRPPGRPQLSLQELRREFTVSLHLARKLLSEVRGQAHRFAESHLPGVNLYLLPLGEQLPDVSLTFQAWRRLSDPERLCFISTTLQPFHALLGGLGTQGRWTNMERMQLWAMRLDLRDLQRHLRFQVLAAGFNLPEEEEEEEEEEEEERKGLLPGALGSALQGPAQVSWPQLLSTYRLLHSLELVLSRAVRELLLLSKAGHSVWPLGFPTLSPQP chain 2: RKGPPAALTLPRVQCRASRYPIAVDCSWTLPPAPNSTSPVSFIATYRLGMAARGHSWPCLQQTPTSTSCTITDVQLFSMAPYVLNVTAVHPWGSSSSFVPFITEHIIKPDPPEGVRLSPLAERQLQVQWEPPGSWPFPEIFSLKYWIRYKRQGAARFHRVGPIEATSFILRAVRPRARYYVQVAAQDLTDYGELSDWSLPATATMSLGK",suppressed the HN effect,had the HN-like effect,1 to 10 µM,≤ 100 nM,increased,,
binds,binds,MAPRGFSCLLLLTGEIDLPVKRRA (also called S14G-HN) [S14G-Humanin (HNG)],,,,,,,
,,"CNTF: ciliary neurotrophic factor, recombinant cytokine (protein, UniProt P26441 1-200, looked up) Ciliary neurotrophic factor: MAFTEHSPLTPHRRDLCSRSIWLARKIRSDLTALTESYVKHQGLNKNINLDSADGMPVASTDQWSELTEAERLQENLQAYRTFHVLLARLLEDQQVHFTPTEGDFHQAIHTLLLQVAAFAYQIEELMILLEYKIPRNEADGMPINVGDGGLFEKKLWGLKVLQELSQWTVRSIHDLRFISSHQTGIPARGSHYIANNKKM",inhibited the HN effect,,,,increased,did not mimic HN,did not inhibit
